From the DeepSol protein solubility set

Experiment: soluble on expression in E. coli; label from the status in PepcDB or PDB records

| Sequence | soluble on expression in E. coli |
| --- | --- |
| MSLSGFNYEKNQPHQMRAVSAVLGVFDGATPKYRTADENPELLFAAKQYANNILKVQSQNGIDGRFPDRSDDQNILDISMETGTGKTYTYTQTMFELHRWLGVFKFIVVVPTLSIKAGTQQFLQSKALAEHFEQDFGGDYEGVRLKTYVVESAKKNKGKKSNAPITIEQFVKAENKKEIHVLLINAGMVNSSSMNDTGDKALKDLFDNPVDALAAVRPFMIVDEPHKFPTRDSAKTWGNIKRLKPQYILRYGATFNDEYYNLLYRLTAVDAFNDGLVKGVRVFQEEMQGGMDAAVKLVSSDGKEAKFELNEKDKKQTFKLAKGEDLAQIHPAISDLKIDKMNKTVVVLSNGLELKTGAVINPYSYSQTVQDAMMQRAVAEHFKLERALLAERAPQPKIKPLTLFFIDDIAGYRSGNELSGSLKDKFESWIRAEAARRLKTESDPFYRDYLQKTLDDVSACHGGYFSKDNTDSDDRIEQEINEILHDKEKLLSLDNPRRFIFSKWTLREGWDNPNVFQICKLRSSGSTTSKLQEVGRGLRLPVNELMARVRDVPYKLNYFVDSSEKDFVKQLVGEINDNSFQEEISKKFTEELKQKILQKYPDIKPLVLVNQLFLDGIIDDNENFAEDGYDKLKAAYPEAFPKGLDKGKVSNAKDEGKDTIIMREGKYEELKALWELIHHKAVLQYKIKDEAEFADLFTAYLHENAAKFPQAGIRTAVNEAYINNGLMLSRRIDSFEDEDFIRFNTMTYREFLEKLAQTAKIRMQTLHQAFYCIRNELNIGDFLNMQTIAQIKNGFNRFLLHHSFHKFELDYRLVGSKIHPTKFTNKDGKPRAVKKADLGRFEDTEHRPAAGYLFGEIFYDSDIEHENVANNQIEGVIVFTKIPRNSIKIPVAGGGTYSPDFAYIVKTKSGEILNFVIEAKGTDGAEDLRKSEERKIKHAEKLFAEISKEIKVVFKTQFDGERIAELIGQNMPAGGHSENGREGHHHHHH | not soluble |
| MTTHHIKKSYSPNTKLSDLICENYDLLLVITRFGISLGFGEKSIREVCEDNKVNTNTLMAVINALINRPEHPSETVLSDLSAPSLINYLRKSHNYFLEFRLPLLRQDLLAALSNCPSEVVFVIRQFYDEYVEEVRKHMSYEEKTVFPYVEKLLGGKLDKRSHYRIDIFSKRHDQIELKISELKNLLIKYYPTSSGYELNSVLHDIFSSEDDLSAHNFVEDHLFVPLIRKIEKENGL | not soluble |
| MHGRLKVKTSEEQAEAKRLEREQKLKLYQSATQAVFQKRQAGELDESVLELTSQILGANPDFATLWNCRREVLQHLETEKSPEESAALVKAELGFLESCLRVNPKSYGTWHHRCWLLSRLPEPNWARELELCARFLEADERNFHCWDYRRFVAAQAAVAPAEELAFTDSLITRNFSNYSSWHYRSCLLPQLHPQPDSGPQGRLPENVLLKELELVQNAFFTDPNDQSAWFYHRWLLGRAEPHDVLCCVHVSREEACLSVCFSRPLTVGSRMGTLLLMVDEAPLSVEWRTPDGRNRPSHVWLCDLPAASLNDQLPQHTFRVIWTGSDSQKECVLLKDRPECWCRDSATDEQLFRCELSVEKSTVLQSELESCKELQELEPENKWCLLTIILLMRALDPLLYEKETLQYFSTLKAVDPMRAAYLDDLRSKFLLENSVLKMEYADVRVLHLAHKDLTVLCHLEQLLLVTHLDLSHNRLRALPPALAALRCLEVLQASDNALENVDGVANLPRLQELLLCNNRLQQSAAIQPLVSCPRLVLLNLQGNSLCQEEGIQERLAEMLPSVSSILT | soluble |
| MGSDKIHHHHHHMLGQRIKSLRKAKKLTQSDVADGIMTKSMLSMIENEKATPSLPALQSIAHRLHVSIDALLIDPRAVEMKQMIEKINSTASGYYAEGQIATMLEPYLEPAINSYWQGQIYYEYGSALRFSDTEKGLHYFDLAEDVFQQLGLRDEQIKVQISKVYFLFFLRRYEEAYRKIDGMMIFQDVPLAHETFLDYQMLQAIRVSVINDNWSQSIVFLREGIRYMREKGVYSDVSNYHRLLALFLSLEEDYEAAEFELEKLRHFFLFTEATALDQILVDLTKGSIAVHREDYAGIREARERLIEVEIEACLHYIGYFEVYLCLWNDSKEELTFDLPSAVSKIWRNAHLWRAGGEYDHAMMLYALAFAMQAGVGLDRQAEVEELTTQLSPGHFKQKIEQTLARLT | not soluble |
| MPKHIIDEIESLSLATGFILKNGDFTEEKSLLVKPTMGGTWHWSPIKGLHSQDSIRKTRAYILQEIARMTIYPEAGVSPTLRRKKGIVIGVARAVSTELYHIVENDLIEEEMDTAKLAVGYDGETIVIKNDVDSKWKEELSKPLNLSETENKVIQRLLLISHGVIPLQGYSLVTTSHHYNDKSKRAFSAVERQFFSRCDQLSWWKEDEEALRDAMWHKAGHPVKISFKKEIACSITIKQSLANAGIGSVACRLPATEDVVWKAEAYRNLLKTLSPIFDDEVKWEALDEMLSYLNHFSAARPTEVVTVHNAPTHLMSLDTREKVVTWIAQWCSQNAEKVAICLGFHTALLENAGKFPGPSYSLMVLRTNVDSYILGTKLFSDYTVFKAKLRQLMDSVS | soluble |
| MNILYTVENSIYVNITNTCPCSCVFCIRNEKDEVANSGSLWLEHEPSVDEVKEAFNKYNLDDYDEIVFCGYGEPLMRINELIDVAKFIKEKSSIKIRINTNGLSDLIHNKKTAILLKDVIDAVSISLNAPNKEAYNRVTQPKFGEKSFDYMLDFAKDCKKYIKEVAFSVVDEISPEEIEESKQLAKKLDIPLRVRHKN | not soluble |
| SASEDAALDATGHKKGEPAFGVTIPKGTTYRDSDGKEVPHPCVDRKIGYQGHFDALYGTYNYSVKEPATDLPKLELMAVDGQQVVPQESLCFRLPPDAGEDGEELSRIRIPDDEEFSFLGKPGDIVWYAPQNIPFANGHRPIWAGIGAFDPHHEPKGKDSIPEHLDKNMYFELKDFSGPGDVNVFFKNNSRKEVERIFSSNDEELKTIEYEMGSHGHFNWTFSKPGIYELTWEAYVKNGAFKVKTEPVRQIWLVGSDEEVGLPEGTTTNLNKITKPLDKDATNEPPTDPSEKKKPPRPEKGHSETSSPSALDDSIERAWKLTGTPKTIINDGHMDLALTRPDKEFVTVINREGKKYSSGDVTLAVPDSGGDQGGPLVKTDSWKDRIEAQISGSLPDQAWVLPESQDHKLPWVGFSNEDLPSDALLPDSKMTVSLNKVELPHDGRMISWHNGISGIDLLTDTDDLSKNLEYGLHAHDHQSMLFTKEGAYGLEYSFDITTASGKQESYPLHISYLVGDATIARAKEILAGEKLGGSLKKKPQEKETKKPASVQNKSGKHNKDTVGSESARKRQQLAATSGSDTNGIYSFHDGDVQDEAVTTAAEWQELDT | not soluble |
| MGSDKIHHHHHHAQYNKVYADITANMLVDMGFENVIWSEDEKERVYVLENTPWRLQGVGLAHAIDRIQKTGLPEKGKSCRIVVLDNNIPQISLIYTANPDSLKAAPGSYAARSAWDATYDLGDSWDKVKKEYRMNSSLFKVDVVVYPELYLKNLIITQIYQVLFNLSPAIEVSFWNGMKLTAQMVFPIYNDGYGPWAGKIHPGMVTLSQSFRLPYRTFARASIGLFNADRYGVDLAVTHHLKDERFSLEGRIGCTGTGSWQKFEYHYGTHQRVTWSLGGSFYWPKYNTQVSLKAEQYLLGEIGGRIDLIRHFRYCSIGFYAMKAQGALKNGGFRFQVALPPYKYKRKNVRVLPSDNWGMSYNAGNERYYYKGYKASPNDNIMQQNQFNPYFIKSELLNF | not soluble |
| SAFPIDLRGQTAFVAGVADSHGYGWAIAKHLASAGARVALGTWPPVLGLFQKSLQSGRLDEDRKLPDGSLIEFAGVYPLDAAFDKPEDVPQDIKDNKRYAGVDGYTIKEVAVKVKQDLGNIDILVHSLANGPEVTKPLLETSRKGYLAASSNSAYSFVSLLQHFGPIMNEGGSAVTLSYLAAERVVPGYGGGMSSAKAALESDTRTLAWEAGQKYGVRVNAISAGPLKSRAASAIGKSGEKSFIDYAIDYSYNNAPLRRDLHSDDVGGAALFLLSPLARAVSGVTLYVDNGLHAMGQAVDSRSMPPLQRATQEIN | soluble |
| MIKLENELLLVEMKEAGAELTRIFHKDTKLEYLWNADSTFWGRHSPVLFPTVGRLVEDTYFVDGNPYHLGQHGFARDRDFKVVEHTENAVRFELDADEDSLTIYPYKFKLSIIYTIEKDSVAVSYEVENTDNKRIYFSIGAHPAFNLPLADGTTFEDYYLDFGTEENLETLCLEGPYRSGKIEKVVNEPARYLPLSYDLFKNDALIFEGLKQKEITIKSDKTPHFVKVSFPEFPFVGVWTAKAGTPFLCIEPWYGIADGAGKSVELRDKAGIEHLEPEAVFASEYKITIGLEHHHHHH | not soluble |
| MFKKLLHSLFAGLTFMAAVAAVPAHAQEADAQTTVKTAVDDVLATIKGDSDLRSGNMQKVFQLVDQKIVPRADFKRTTQIAMGRFWSQATPEQQQQIQDGFKTLLVRTYAGALANVRNQTVSYKPFRAAADDTDVVVRSTVNNNGEPVALDYRMEKSANGWKVYDINISGLWLSETYKNQFAEVISKRGGVSGLVQFLDERNAQLAKGPAKLEHHHHHH | soluble |
| MAHHHHHHMALIQTAHDACSRKVHCVRKGYLNDPFVSFFEKDHTIVNSPLMNRGTWLRTTAFENCVRGFATAAGQPIQVINFGAGMDTLYFRLKHSDPQFPVQKFMELDLADLVAEKERIIKRHSEMHSLVGSQYVLVSCDLYDAKGVAKALKEHLHGGTPTIMIAEMVFVYIEGSVTTNLLRTVMSDVIEPGTKTMLVTYDAIQPFDRFGKVMVENLQHFGADFKGIGDFPTPEAHAGRCSELGFKAVKSVTMKNLYLGVPRQIQIRLNKLEMIDDWEEWNLMHEHYCFVVASTEDAPLPKLF | not soluble |
| MLLPWLFPQTKRNNFAAKVNSENQEKLLILRKEDASASSGQSELSLVQMGLKQVVASSFWLVFEFQHFKVGCNAARKFPVNGIANAQPQQCGTYRSHNGKLSIAIGHFCRIHQRAHTHFAIAKIAEFNPAVHCHHVVWHLFWRTHLGAIQLCV | not soluble |
| MGSDKIHHHHHHMRRSKLTPTTPPMFKNLSVYRIQGDWHPAIAEAEASLQKFRFAECGATQAISAGWVEPRGEKHGPLVEAVGDQWMLTLCIQTKLLPAGVIKQHVDARIEQIKQREARRPGKKEVREIKEAVILELLPKAFSKKEHISVWIDRKNKLVAIDTASQSKCDTATSALVKTLDGLAIGLIQTQMSPGTCMSQWLMDGEAPDGFGVERECELKSSDESRSAVKYSRHVLDIDEVKQHLTHGKTPTQLAMTWTDRVSFTLTDAMALKKVTFLETPLMKKKAGGDDPFDANAAIVTGELSQLIPQLIEALGGELEFTGESGEGAREAKSEEREQETAEA | not soluble |
| MILIFEEHRMQLSSEQCDFFFTNGYLVINNFFSESVCDLLKQRIETLLENNQAEIPKTIFSTQTNEHAKKQYFLDSGDKIHYFFEPGAFDEAGDWLRPFNQSINKIGHALHELDPVFRQYSRDDRIKKIAHQLGLKTLGLVQSMYIFKQPGIGAEVLCHQDSTYIFGEDSDALGFWFAIEDATLENGCLEVIPSPCTTPLKQRMFRRENEIYFENFDSSPWPEENSVPLPVKKGALIILHGRVPHKSQANFSNQSRHAYTLHLVDISLPYPEKNWLQWPNGIPCLLEHHHHHH | soluble |
| MGSDKIHHHHHHMKVFVIGAGLMGRGIAIAIASKHEVVLQDVSEKALEAAREQIPEELLSKIEFTTTLEKVKDCDIVMEAVFEDLNTKVEVLREVERLTNAPLCSNTSVISVDDIAERLDSPSRFLGVHWMNPPHVMPLVEIVISRFTDSKTVAFVEGFLRELGKEVVVCKGQSLVNRFNAAVLSEASRMIEEGVRAEDVDRVWKHHLGLLYTLFGPLGNLDYIGLDVAYYASLYLYKRFGDEKFKPPEWLQEKIKKGEVGVKAGKGIYEYGPKAYEERVERLKKLLRFLGLE | soluble |
| MMGMAVSTKLSIDEVNMLEKEDFVTKIGPIFEHSPWVAERAWAHRPFTSAENMYECMLEKVYEADKRLQLALLRAHPDLGTRLEISETSQSEQQRAGLSQLTEEEFAVFAELNKCYVDTFRFPFIMAVRGQTKNSIKEQMRKRLVNDEEQERKTALREVAKIAKFRLADLVVMGSRSLEHHHHHH | soluble |
